Here are results for two molecules from patent US9371519B2, “Complex type sugar chain hydrolase” (National Institute of Advanced Industrial Science and …, priority 2011, dated 2016).

This data set can be described thus: Enzyme activity measurement with NGA2-Asn-Fmoc by HPLC (specific activity, Km, Vmax). Particulars: for Specific activity: 1 mM NGA2-Asn-Fmoc as substrate. It counts as biochemical. As for the experimental part:
The enzyme activity was measured as follows. A reaction solution (total volume: 10 μl) containing 100 mM of a sodium acetate buffer (pH 5.3) at the final concentration, 0.5 M NaCl, 10 μM of a Fmoc-labeled biantennary complex type sugar chain (NGA2-Asn-Fmoc), […], and heated at 95° C. for 5 minutes, thereby stopping the enzyme reaction. The reaction solution was subjected to HPLC, and the enzymatic activity was calculated from the peak area ratio between the NGA2-Asn-Fmoc as the substrate and its hydrolysate. The column was Asahipak NH2P-50 4E (4.6.250 mm, Shodex), and the solvents were acetonitrile (solvent A) and 200 mM of TEAA (pH 7.0, GLEN RESEARCH: solvent B). Isocratic elution was carried out at a flow rate of 1.0 ml/min, and the solvent B: 43%, and detection was carried out using a fluorescence detector (excitation wavelength 265 nm, and fluorescence wavelength 315 nm). The activity hydrolyzing […] of NGA2-Asn-Fmoc in 1 minute under the above-described reaction conditions was defined as 1 Unit of the enzymatic activity of Endo-Om.
The properties of Endo-Om were studied using a purified enzyme solution. According to the method described in Example 4, the Endo-Om crude enzyme solution prepared from 100 ml culture was substituted with an equilibration buffer (20 mM sodium phosphate buffer (pH 7.4), 0.5 M NaCl, 0.5 mM PMSF, 50 mM imidazole) by dialysis. The Endo-Om crude enzyme solution after dialysis was subjected to a HisTrap HP column (GE Healthcare), washed with the equilibration buffer, and eluted stepwise by an equilibration buffer containing 50 mM, 100 mM, and 200 mM of imidazole, thereby eluting the protein. The fraction containing Endo-Om eluted from the column was subjected to ultrafiltration concentration using Amicon Ultra (50,000 NMWL, Millipore), further dialyzed with 20 mM of sodium phosphate buffer (pH 7.4) and 0.5 M of NaCl, and glycerol was added to make the final concentration 10%, thereby making an Endo-Om purified enzyme solution. According to the method described in Example 4, the activity of the Endo-Om purified enzyme solution when the substrate concentration was 1 mM was measured, and the specific activity was calculated. In addition, activity measurement was carried out using NGA2-Asn-Fmoc at different concentrations as the substrates, and Km and Vmax were calculated. For comparison, the specific activity, Km, and Vmax of the commercially available Endo-M were calculated by the same method. The optimal pH of Endo-M is 6.0 (Non Patent Literature 6), so that the pH of the sodium acetate buffer was made 6.0 when measuring the activity of Endo-M.
The enzyme activity was measured as follows. A reaction solution (total volume: 10 μl) containing 100 mM of a sodium acetate buffer (pH 5.3) at the final concentration, 0.5 M NaCl, 10 μM of a Fmoc-labeled biantennary complex type sugar chain (NGA2-Asn-Fmoc), and Endo-Cp was incubated at 30° C. for 3 hours, and heated at 95° C. for 5 minutes, thereby stopping the enzyme reaction. The reaction solution was subjected to HPLC, and the enzymatic activity was calculated from the peak area ratio between the NGA2-Asn-Fmoc as the substrate and its hydrolysate. […] Isocratic elution was carried out at a flow rate of 1.0 ml/min, and the solvent B: 43%, and detection was carried out using a fluorescence detector (excitation wavelength 265 nm, and fluorescence wavelength 315 nm). […]
The enzyme activity was measured as follows. […]

B1: Endo-Cp: endo-β-N-acetylglucosaminidase from Candida parapolymorpha DL-1 ATCC26012, amino acid sequence SEQ ID NO. 5, 745 amino acids (protein, listed as Candida parapolymorpha)
chain: MPRNTAKHSSLPQTNLPLSSLESSFFDSLDELANWERRIHEKSFELDELNKPTEKLAHYTRARQQSTSEDVKLLVCHDLKGGYQVNEDEDPLGYFPHPDGQHYFLQYPQLVDKFVYFSHHRVSIPPVSWINVCHRNAIKCLGTVIFEGNTYRDFEEADKLLTKQDGEYVFVRCLVALVEYFQFDGYLFNIETRFSNTRIASLLEPFLEQLRAELHVRNPSTELIWYDSYIYPENRVLYKNGVTEANYNFFSCCDSFFTNYWWNVKHLQDNIKNVGVLGSRLKVYAGYDVWGRGTMIGKGGYDSALACQMIKKYRSNVALFAPAWTYEYLARKDFTQNDTRFWIGLFDGESSMATTFKPYSSPLYKINDSNFVFYTNFGSGEGCAFYECGEKVYRDNWVNGSLQMEIPYAIHTRNKNGIQWTLSKEDSFHGGSCVEIKYNEVVDDKGYQVFNNQTINSFSLFSFVQDCSFPTVNVKLTYKLNHKTKSFFKLKIGYYIERRYRTVQKVRSGCLVVPLLSTNDQWFTIEEPFHVSLQNSHEFIVLDSATIFYEETEDPFMRAHVVEDQSTSSVIDNEEYEKLMNSEIYFDDEDEDWILVPSDISMESTDNGGRENHTWKVISNQIRKKHPKSHPSTSPVLKLGELAIINANDYPSDSFFKLMPVNSIDVRRWEGKILLIWKTNQDSVLYHLIFVDDVFQGISLVSKFVFEDQAVDEKSFKTKSGGSTKVRIDTVNRLGILVKGTDM
For B1, the “Specific activity of partially purified enzyme solution” value (10 μM NGA2-Asn-Fmoc as substrate, pH 5.3, 30° C.) was found to be 120 μUnit/mg.

B2: Endo-Om: endo-β-N-acetylglucosaminidase from methylotrophic yeast Ogataea minuta IFO10746, amino acid sequence SEQ ID NO. 1, 772 amino acids (protein, listed as Ogataea minuta)
chain: MAQSQLLGGAVRPVFFDKLEELRRWHTQSANLSRESELDSLNVATEPFSSYERAQTGSGSRSSEPVPGDKEDPPIKLMVCHDFKGGYQDYEDAQPLGYFPHPTGSRYFLQYPQLIDQFVYFSHHRVTVPPVNWINFCHRNGIKCFGTVIFEGNASKDFEELDRLVSRDEKGDFVFVDALIKLAAHYGFDGYLLNIETTFSNTKIAADLEPFAEQLKSGLHCLDSKNELIWYDSYVFPANKVSYTNGVTESNYNFFSLSDAFFSNYWWNIKNLQENIKNVGVLGVQKKIYVGYDVWGRGTLVGKGGFDSSLACKMIAKFKSNVALFAPAWTYESLGPKDFNQNDARFWIGLFENESSISSTVPPHSSAVYKINESSFIFYTNFSSGEGNRFFSKGSEVYRKNWVNGSLQFDLPIDLHRKDKNGLQWALDKSDAFHGGACLEIKYSEIKDENGYQIFNNQMVSDFTLFNFTKECHFPTVNVKVTYKLNHKTKSTFKIKIKYIIERRFRSVQTVRTGYLTIPLLSTSGKWFTVEESFQINLQTSHEYIVLESAHVTYDEDRSADSFFRSYIVEDSAITSVIDNEEYEKLINSEIYNDDEDEDWILVPSDVSISSSESQSNDSKTQYLGRKLFGNKSTPKTRTLEGTAPLLRIGEFAIISANNYPSSNFLAVTSVKSIESSRLEGDSLVLLNWQVGEGHQKGVCYYIIYVNGAVVGLSVAPKFIYQDTELASENSASARSNYKKSGLGSSSDRKSKVRVDSVDKLGNVFTGSEVWV
In the case of B2, the Specific activity (purified Endo-Om) turned out to be 0.8 µmol/min/mg. Further, for the setting “purified Endo-Om (pH 5.3), commercially available Endo-M (pH 6.0)”, the Specific activity is 0.80 µmol/min/mg. For the same molecule, for the setting “NGA2-Asn-Fmoc”, the “Km relative to the Km of Endo-M” value turned out to be 31 times and the “Vmax relative to the Vmax of Endo-M” value was 55 times.
